The target of test [1] is T1, PHF-tau (paired helical filament tau isolated from Alzheimer's disease brain) (human, UniProt P10636-8 2-441, limits assumed, hyper-phosphorylated, aggregated; sites not listed for the preparation).
T1 construct: also called enriched PHF-tau; ePHF-tau
The experiment in a line: SPR ProteOn, PHF-tau on chip.

The target of test [2] is T2, tau phospho-peptide of the direct ELISA of Example 11.
T2 construct: also called pT217 peptide; pT212/pT217 peptide
Put plainly: direct ELISA, peptide coated. The procedure, abridged:
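Tau phospho-peptide coated directly on plates at 10 ng/mL overnight, then incubated with antibodies. Bound Fab detected with HRPO-labelled anti-Fab antibody (1:10000) and TMB substrate. Binding curves generated from the read-out.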
(In general: In an ELISA, binding on a coated surface is turned into a signal by an enzyme label.)

Test [3] deals with T1, PHF-tau (paired helical filament tau …). The experiment in a line: SPR ProteOn, PHF-tau capture-coupled via HT7, bivalent model. As to the method:
(§1) Affinity matured monoclonal antibodies were tested for binding to PHF-tau isolated from Alzheimer's disease brain.
(§2) A GLC sensor chip was covalently immobilized with a mouse anti-tau antibody, HT7 (ThermoFisher, catalog# MN1000) using the vendor recommended protocol for amine-coupling chemistry (˜5000 response units, RU). The coupling buffer was 10 mM, pH 4.5 sodium acetate. PHF-tau was prepared by 2-times centrifugation at 5000×g in 5° C. for 10 min. […] After capture-coupling, the surface was activated and deactivated to generate a homogenous PHF-tau surface for antibody binding studies. The anti-tau antibodies and their Fabs (prepared in running buffer, 0.024-75 nM at 5-fold dilutions) were injected at 50 μL/min over the PHF-tau surface to measure binding. The association and dissociation profiles were monitored for 4 minutes and 2 hours, respectively. After dissociation, the sensor chip was regenerated using multiple injections of 10 mM Glycine pH 2.0 and the running buffer. A reference surface (without any PHF-tau) was used to monitor non-specific binding of the injected mAbs or Fabs. HT7 antibody was used as a positive control. The binding sensorgrams for mAbs were fit using a bivalent binding model where the apparent affinity or avidity-driven binding (KD) was reported as the ratio of off-rate and on-rate (koff/kₒₙ). A 1:1 Langmuir binding model was used for kinetics analysis of Fabs.

For test [4] the target is unchanged. The experiment in a line: SPR ProteOn, PHF-tau capture-coupled via HT7, bivalent model; lower end of range. As to the method:
as §1
as §2, with “A 1:1 Langmuir binding model was used for kinetics analysis of Fabs.” left out

Test [5] shares this target. Put plainly: SPR ProteOn, PHF-tau capture-coupled via HT7, bivalent model; upper end of range. As to the method:
as §1
as §2, with “A 1:1 Langmuir binding model was used for kinetics analysis of Fabs.” left out

Test [6] shares this target. The experiment in a line: SPR ProteOn, PHF-tau capture-coupled via HT7, bivalent model; lower end of range; lower end of range. Here is the method: as §1
as §2, with “A 1:1 Langmuir binding model was used for kinetics analysis of Fabs.” left out

The target is the same in test [7]. Put plainly: SPR ProteOn, PHF-tau capture-coupled via HT7, bivalent model; upper end of range; upper end of range. As to the method:
as §1
as §2, with “A 1:1 Langmuir binding model was used for kinetics analysis of Fabs.” left out

In test [8] the target is T2, tau phospho-peptide of the direct ELISA …. Put plainly: direct ELISA on plate-coated tau phospho-peptide (10 ng/mL), detection with HRPO-labelled anti-Fab antibody. As to the method: Binding to tau phospho-peptide was analysed by ELISA where peptide (10 ng/mL) was directly coated to the plate overnight. […] After incubation with antibodies, plates were washed and 50 μL per well of HRPO labelled anti-Fab antibody (Jackson Immunoresearch laboratories) (diluted 1:10000 in blocking buffer). After another washing step detection was performed with “One step” TMB (Thermo Scientific) according to the manufacturers' instructions. Plates were analysed in EnVision® 2102 Multilabel Reader (Perkin Elmer, Waltham, Mass., USA). Binding curves were generated using GraphPad Prism7.0 software.

T1 sequence (P10636 other isoform, or with tags, fused parts or gaps limits assumed): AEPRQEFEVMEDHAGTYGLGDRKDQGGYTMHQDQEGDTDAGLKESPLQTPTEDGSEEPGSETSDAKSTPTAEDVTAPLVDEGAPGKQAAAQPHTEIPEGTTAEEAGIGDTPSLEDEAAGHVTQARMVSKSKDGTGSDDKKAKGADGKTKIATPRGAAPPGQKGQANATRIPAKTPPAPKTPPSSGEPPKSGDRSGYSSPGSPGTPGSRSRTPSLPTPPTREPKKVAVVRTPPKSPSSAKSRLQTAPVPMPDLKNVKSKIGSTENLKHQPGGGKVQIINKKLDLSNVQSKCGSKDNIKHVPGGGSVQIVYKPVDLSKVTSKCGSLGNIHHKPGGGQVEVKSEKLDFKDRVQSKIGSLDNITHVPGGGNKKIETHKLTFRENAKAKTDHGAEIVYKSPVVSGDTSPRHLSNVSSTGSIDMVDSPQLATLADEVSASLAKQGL
T2 sequence (main, as listed by the source): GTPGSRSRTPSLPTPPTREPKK

B1: B711 (antibody, human IgG1, kappa, V domains shown)
VH: QVQLVESGGGVVQPGRSLRLSCAASGFTFTSYAMSWVRQAPGKGLEWVASITKGGNTYYADSVKGRFTISRDNSKNTLYLQMNSLRAEDTAVYYCARGWGIYGWFAYWGQVTLVTVSS
VL: DIQMTQSPSSLSASVGDRVTITCKASQDINRWLNWFQQKPGKAPKSLIYRANRLLDGVPSRFSGSGSGTDFTLTISSLQPEDFATYYCLQYDEFPLTFGQGTKLEIKR
notes: also called PT1B711
As a reminder, the EC50 is the concentration at which the effect is half-maximal. Low readings indicate higher potency in that assay, high ones lower potency in that assay. For orientation: koff means the rate constant with which the complex falls apart. High values mean a short-lived complex, low ones a long-lived complex. By kon is commonly meant the second-order rate constant of association. Read a high kon as fast association. A word on the EC50 (read off the curve): it is the midpoint of the concentration-response curve. A high value points to lower potency in that assay. In the case of B1, the “fold improvement in on-rate compared to the parent antibody (B296)” value in test [1] is 3 fold. For the same molecule, in test [2], the midpoint of the response, the EC50, lay at 70.7 pM. The Kd amounted to 1.8 pM in test [3], 1.6 pM in test [4] and 2.1 pM in test [5]. For the same molecule, the results for the dissociation rate constant (koff) in test [3], in test [4] and in test [5] were 1.13e-05 s⁻¹, 1.08e-05 s⁻¹ and 1.17e-05 s⁻¹, respectively. Further, the values for the on-rate constant (kon) in test [3], in test [6] and in test [7] were 6.17e+06 M⁻¹ s⁻¹, 5.72e+06 M⁻¹ s⁻¹ and 6.61e+06 M⁻¹ s⁻¹, respectively. For the same molecule, the “EC50 (read off the curve)” value in test [8] was around 40 pM.

The values are drawn from patent US20230047413A1 (Janssen / Centocor, published 2023).
